First the molecules themselves.
B1: Arabidopsis thaliana ethylene receptor ETR2 (AtETR2), full-length, type-II subfamily (receptor, UniProt Q0WPQ2 1-773, looked up)
chain: MVKEIASWLLILSMVVFVSPVLAINGGGYPRCNCEDEGNSFWSTENILETQRVSDFLIAVAYFSIPIELLYFVSCSNVPFKWVLFEFIAFIVLCGMTHLLHGWTYSAHPFRLMMAFTVFKMLTALVSCATAITLITLIPLLLKVKVREFMLKKKAHELGREVGLILIKKETGFHVRMLTQEIRKSLDRHTILYTTLVELSKTLGLQNCAVWMPNDGGTEMDLTHELRGRGGYGGCSVSMEDLDVVRIRESDEVNVLSVDSSIARASGGGGDVSEIGAVAAIRMPMLRVSDFNGELSYAILVCVLPGGTPRDWTYQEIEIVKVVADQVTVALDHAAVLEESQLMREKLAEQNRALQMAKRDALRASQARNAFQKTMSEGMRRPMHSILGLLSMIQDEKLSDEQKMIVDTMVKTGNVMSNLVGDSMDVPDGRFGTEMKPFSLHRTIHEAACMARCLCLCNGIRFLVDAEKSLPDNVVGDERRVFQVILHIVGSLVKPRKRQEGSSLMFKVLKERGSLDRSDHRWAAWRSPASSADGDVYIRFEMNVENDDSSSQSFASVSSRDQEVGDVRFSGGYGLGQDLSFGVCKKVVQLIHGNISVVPGSDGSPETMSLLLRFRRRPSISVHGSSESPAPDHHAHPHSNSLLRGLQVLLVDTNDSNRAVTRKLLEKLGCDVTAVSSGFDCLTAIAPGSSSPSTSFQVVVLDLQMAEMDGYEVAMRIRSRSWPLIVATTVSLDEEMWDKCAQIGINGVVRKPVVLRAMESELRRVLLQADQLL
modifications: Alexa Fluor 488 succinimidyl-ester label where used as the labeled partner in MST
notes: ETR2, Arabidopsis thaliana, UniProt Q0WPQ2, full-length, codon optimized cDNA according to NCBI NM_113216.3; The thrombin site of pGEX-4T-1 was changed to a TEV site (ENLYFQG); No cleavage is described; The purified protein runs at an apparent 120 kDa, so GST is probably still attached; The same construct was used with and without the Alexa Fluor 488 label; source: E. coli C43 (DE3), solubilised …

Several values for one entry are separate records, joined by “and”; a condition that tells them apart may be missing. Identical values can stand only once.

In data set [1] the target is T1, Arabidopsis thaliana EIN2 C-terminus (AtEIN2 479-1294), soluble cytosolic domain (Arabidopsis thaliana, UniProt Q9S814 479-1294, Alexa Fluor 488 succinimidyl-ester label where used as the labeled partner in MST).
T1 construct: source: recombinant, expressed and purified as previously described (Bisson et al., 2016)
T1 sequence (looked up): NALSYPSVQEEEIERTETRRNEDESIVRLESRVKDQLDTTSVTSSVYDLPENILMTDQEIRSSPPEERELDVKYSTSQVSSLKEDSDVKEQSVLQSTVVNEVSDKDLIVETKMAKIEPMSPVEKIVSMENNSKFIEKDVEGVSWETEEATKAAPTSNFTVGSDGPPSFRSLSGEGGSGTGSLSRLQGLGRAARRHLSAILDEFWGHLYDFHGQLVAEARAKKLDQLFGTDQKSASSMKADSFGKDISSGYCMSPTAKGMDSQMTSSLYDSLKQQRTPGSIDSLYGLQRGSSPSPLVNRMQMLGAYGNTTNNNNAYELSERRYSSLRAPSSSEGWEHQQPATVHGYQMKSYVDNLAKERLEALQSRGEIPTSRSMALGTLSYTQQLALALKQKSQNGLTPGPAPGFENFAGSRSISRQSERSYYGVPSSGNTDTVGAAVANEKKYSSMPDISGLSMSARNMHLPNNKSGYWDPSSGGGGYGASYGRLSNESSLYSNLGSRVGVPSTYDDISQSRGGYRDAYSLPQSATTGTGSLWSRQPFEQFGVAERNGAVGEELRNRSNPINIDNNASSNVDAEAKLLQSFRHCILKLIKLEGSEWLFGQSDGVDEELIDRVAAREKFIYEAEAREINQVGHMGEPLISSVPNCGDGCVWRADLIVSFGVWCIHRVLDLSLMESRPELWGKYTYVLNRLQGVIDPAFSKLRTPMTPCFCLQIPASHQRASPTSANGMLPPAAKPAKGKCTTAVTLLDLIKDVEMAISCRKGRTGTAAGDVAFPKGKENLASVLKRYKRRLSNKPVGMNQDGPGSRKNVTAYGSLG
Put plainly: MST; 75 nM Alexa Fluor 488-labeled AtEIN2 479-1294; unlabeled AtETR2 titrated 4 µM to 1.95 nM; ambient temperature; 60% MST power; 1:1 model; apparent Kd. The following applies: both partners purified.

Data set [2] addresses T2, Isolated transmembrane domain of AtETR1 (aa 1-157) with C4S and C6S (Arabidopsis thaliana, UniProt P49333 1-157, C4S | C6S).
T2 sequence: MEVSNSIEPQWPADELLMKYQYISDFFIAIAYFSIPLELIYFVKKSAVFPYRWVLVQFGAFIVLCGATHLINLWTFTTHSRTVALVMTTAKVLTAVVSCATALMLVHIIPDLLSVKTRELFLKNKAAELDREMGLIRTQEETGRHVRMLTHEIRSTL
The data set can be described thus: MST; ETR2 Alexa488-labeled.

Data set [3] concerns the molecule itself. The data set can be described thus: MST; 40 nM Alexa Fluor 488-labeled receptor (AtETR1 or AtETR2); unlabeled AtETR1 or AtETR2 (4 µM to 0.49 nM) or ETR1-TM C4SC6S (16 µM to 0.98 nM) titrated; 0.0075% (w/v) FosCholine-16; 60% MST power; 1:1 model.
Data set [4] concerns the target T3, Arabidopsis thaliana Raf-like protein kinase CTR1 (AtCTR1), full-length, fused to mCerulean (Arabidopsis thaliana, UniProt Q05609 1-821, Alexa Fluor 488 succinimidyl-ester label).
T3 construct: CONSTITUTIVE TRIPLE RESPONSE 1 (CTR1), Arabidopsis thaliana, UniProt Q05609, full-length cDNA according to NCBI NM_120454.4; The CTR1 coding region was extended by mCerulean in pET30a; source: E. coli BL21 (DE3) with pRARE, purified (Ni-NTA)
T3 sequence (looked up): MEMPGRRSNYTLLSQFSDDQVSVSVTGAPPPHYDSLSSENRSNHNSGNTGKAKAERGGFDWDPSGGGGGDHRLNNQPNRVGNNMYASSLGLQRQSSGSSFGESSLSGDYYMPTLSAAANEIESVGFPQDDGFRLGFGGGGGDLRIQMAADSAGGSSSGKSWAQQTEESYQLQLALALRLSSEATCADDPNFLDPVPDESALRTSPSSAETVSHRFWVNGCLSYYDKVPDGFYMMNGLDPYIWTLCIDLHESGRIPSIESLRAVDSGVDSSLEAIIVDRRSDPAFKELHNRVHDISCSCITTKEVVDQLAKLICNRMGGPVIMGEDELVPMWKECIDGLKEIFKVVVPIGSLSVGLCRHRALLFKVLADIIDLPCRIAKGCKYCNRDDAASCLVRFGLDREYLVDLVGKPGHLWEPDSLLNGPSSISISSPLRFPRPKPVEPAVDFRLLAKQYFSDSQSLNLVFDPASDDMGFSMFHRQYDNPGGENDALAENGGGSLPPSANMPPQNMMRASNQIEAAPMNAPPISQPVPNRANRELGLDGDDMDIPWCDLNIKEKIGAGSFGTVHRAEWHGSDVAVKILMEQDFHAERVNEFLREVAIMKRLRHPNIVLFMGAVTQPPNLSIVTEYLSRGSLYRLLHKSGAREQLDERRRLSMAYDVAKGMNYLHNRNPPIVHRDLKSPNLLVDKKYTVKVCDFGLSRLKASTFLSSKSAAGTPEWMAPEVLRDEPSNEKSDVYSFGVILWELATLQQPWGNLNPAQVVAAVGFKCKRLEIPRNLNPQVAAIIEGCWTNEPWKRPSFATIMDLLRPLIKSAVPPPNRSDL
The data set can be described thus: MST; Alexa Fluor 488-labeled AtCTR1 (MST buffer 3; 50 nM with AtETR1, 20 nM with AtETR2); unlabeled receptors (MST buffer 2) titrated 4 µM to 0.98 nM; 60% MST power; premium capillaries and 10 min incubation for AtETR2; 1:1 model. The following applies: both partners purified.

For data set [5], the target named is T1, Arabidopsis thaliana EIN2 C-terminus …. The data set can be described thus: MST; 20 nM Alexa Fluor 488-labeled AtETR2 (MST buffer 1: 50 mM HEPES/NaOH pH 7.8, 300 mM NaCl, 5% glycerol, 0.015% FosCholine-16); unlabeled AtEIN2 479-1294 (MST buffer 3) titrated 2 µM to 0.98 nM; 20% MST power; 1:1 model; apparent Kd. The following applies: both partners purified.

Data set [6] deals with B1. The data set can be described thus: MST; 40 nM Alexa Fluor 488-labeled receptor (AtETR1 or AtETR2); unlabeled AtETR1 or AtETR2 (4 µM to 0.49 nM) or ETR1-TM C4SC6S (16 µM to 0.98 nM) titrated; 0.0075% (w/v) FosCholine-16; 60% MST power; 1:1 model. The following applies: both partners purified.
In data set [7] the target is T2, Isolated transmembrane domain of AtETR1 …. Put plainly: MST; ETR1 Alexa488-labeled.

The text below walks through data of publication PMC6566107, “Molecular Analysis of Protein-Protein Interactions in the Ethylene Pathway in the Different Ethylene Receptor Subfamilies” (Frontiers in Plant Science, 2019).

As to B1, the Kd in data set [1] turned out to be 147 nM; in data set [2] it was 145 nM; in data set [3] it was 96 nM; in data set [4], 165 nM; in data set [5], 161 nM.

B2: Arabidopsis thaliana ethylene receptor ETR1 (AtETR1), full-length, type-I subfamily (receptor, UniProt P49333 1-738, looked up)
chain: MEVCNCIEPQWPADELLMKYQYISDFFIAIAYFSIPLELIYFVKKSAVFPYRWVLVQFGAFIVLCGATHLINLWTFTTHSRTVALVMTTAKVLTAVVSCATALMLVHIIPDLLSVKTRELFLKNKAAELDREMGLIRTQEETGRHVRMLTHEIRSTLDRHTILKTTLVELGRTLALEECALWMPTRTGLELQLSYTLRHQHPVEYTVPIQLPVINQVFGTSRAVKISPNSPVARLRPVSGKYMLGEVVAVRVPLLHLSNFQINDWPELSTKRYALMVLMLPSDSARQWHVHELELVEVVADQVAVALSHAAILEESMRARDLLMEQNVALDLARREAETAIRARNDFLAVMNHEMRTPMHAIIALSSLLQETELTPEQRLMVETILKSSNLLATLMNDVLDLSRLEDGSLQLELGTFNLHTLFREVLNLIKPIAVVKKLPITLNLAPDLPEFVVGDEKRLMQIILNIVGNAVKFSKQGSISVTALVTKSDTRAADFFVVPTGSHFYLRVKVKDSGAGINPQDIPKIFTKFAQTQSLATRSSGGSGLGLAISKRFVNLMEGNIWIESDGLGKGCTAIFDVKLGISERSNESKQSGIPKVPAIPRHSNFTGLKVLVMDENGVSRMVTKGLLVHLGCEVTTVSSNEECLRVVSHEHKVVFMDVCMPGVENYQIALRIHEKFTKQRHQRPLLVALSGNTDKSTKEKCMSFGLDGVLLKPVSLDNIRDVLSDLLEPRVLYEGM
modifications: Alexa Fluor 488 succinimidyl-ester label where used as the labeled partner in MST
notes: ETR1, Arabidopsis thaliana, full-length receptor; source: recombinant, expressed and purified as described in Milić et al., 2018, in FosCholine-16
On to B2, for which the Kd is 177 nM and 217 nM in data set [6]; 326 nM in data set [3]; 169 nM in data set [4]; 491 nM in data set [7].
